Assay results reported in patent US9260500B2, “Peptide and use thereof” (Takeda Pharmaceutical Company Limited, priority 2009, dated 2016).
Non-standard residues stand in square brackets, D forms with d. *: point of attachment. X5 = tetrahydro‑2H‑pyran‑4‑yl‑carbamoyl, O=C(NC1CCOCC1)*; ((1S)-1-Carboxyethyl)carbamoyl = C[C@H](NC(=O)*)C(=O)O; (3-Carboxypropyl)carbamoyl = O=C(O)CCCNC(=O)*; Imidazole4carbonyl = O=C(c1cnc[nH]1)*; Arg(Me) = CNC(=N)NCCC[C@H](N)C(=O)O; morpholinocarbonyl = O=C(N1CCOCC1)*; tBuAla = CC(C)(C)C[C@H](N)C(=O)O; 4Pal = N[C@@H](Cc1ccncc1)C(=O)O; dHyp = O=C(O)[C@H]1C[C@H](O)CN1; Cha = N[C@@H](CC1CCCCC1)C(=O)O; Isonicotinoyl = O=C(c1ccncc1)*; Iva = CC[C@](C)(N)C(=O)O; Aib = CC(C)(N)C(=O)O

How the values were obtained:
male C57EL/6J mice = assay: 3-Days Continuous Subcutaneous Administration Test-1 (food intake suppressing activity); type: in vivo, mouse; conditions: 0.03 mg/kg/day, subcutaneous Alzet pump, food consumption over 3 days; relative to food intake suppression rate for PYY(3-36) (1 mg/kg/day) taken as 100%
In short: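 Male […] mice, 12-13 weeks, received compound at 0.03 mg/kg/day by subcutaneous osmotic pump (50% DMSO vehicle), housed singly with free food access. Food consumed over 3 days measured; suppression expressed relative to PYY(3-36) (1 mg/kg/day) set as 100%.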

human Y2 receptor [1] = target: T1, human Y2 receptor (Homo sapiens, UniProt P49146); assay: Human Y2 Receptor G Protein Binding Assay (GBA), [35S]GTPγS; type: biochemical; conditions: EC50 of test compound/EC50 of PYY(3-36) (PYY3-36 taken as 1), hY2R/CHO membrane fraction
T1 construct: expressed in transfected cells; membrane fraction
T1 sequence (P49146 1-381): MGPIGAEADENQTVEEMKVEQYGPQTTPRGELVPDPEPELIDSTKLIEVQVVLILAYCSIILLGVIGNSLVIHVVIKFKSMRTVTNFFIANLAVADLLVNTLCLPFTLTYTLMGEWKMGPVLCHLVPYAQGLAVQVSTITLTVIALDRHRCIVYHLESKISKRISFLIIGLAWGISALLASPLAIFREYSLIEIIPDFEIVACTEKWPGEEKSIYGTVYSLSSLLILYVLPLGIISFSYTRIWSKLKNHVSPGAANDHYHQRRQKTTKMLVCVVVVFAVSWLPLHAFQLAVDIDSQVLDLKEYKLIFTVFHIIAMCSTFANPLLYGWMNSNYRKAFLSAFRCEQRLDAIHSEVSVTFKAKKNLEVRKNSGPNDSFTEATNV
In short: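 Agonism measured as [35S]GTPγS binding, read by GF/C filtration and scintillation counting after 120 min at room temperature, using human Y2 membranes at 1 μg protein/mL in pH 7.4 Tris/MgCl2/NaCl/GDP buffer. Compound serially diluted 100 μM–1 nM; EC50 normalized to PYY(3-36) (ratio = compound/PYY).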

human Y2 receptor [2] = target: T1, human Y2 receptor; assay: Receptor Binding Assay (RBA) for Human Y2, [125I]-PYY displacement on hY2R/CHO membrane fraction; conditions: IC50 of test compound/IC50 of PYY(3-36) (PYY(3-36) taken as 1)
In short: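 Read-out is [125I]-PYY displacement from membranes of CHO/dhfr− cells stably transfected with human Y2R. Membranes were obtained by disrupting cells in a buffer of 10 mM NaHCO3, 5 mM EDTA and protease inhibitors.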

Substance | GBA EC50 Ratio (human Y2 receptor [1]) | RBA IC50 Ratio (human Y2 receptor [2]) | food intake suppression rate (%) (male C57EL/6J mice)
Ac-[D-Pro24, Pya(4)26, Cha27,36, Iva28, Lys30, Aib31]-PYY(23-36) (Ac-S[dP]R[4Pal][Cha][Iva]NK[Aib]TRQR[Cha]-NH2; SMILES CC[C@](C)(NC(=O)[C@H](CC1CCCCC1)NC(=O)[C@H](Cc1ccncc1)NC(=O)[C@H](CCCNC(=N)N)NC(=O)[C@H]1CCCN1C(=O)[C@H](CO)NC(C)=O)C(=O)N[C@@H](CC(N)=O)C(=O)N[C@@H](CCCCN)C(=O)NC(C)(C)C(=O)N[C@H](C(=O)N[C@@H](CCCNC(=N)N)C(=O)N[C@@H](CCC(N)=O)C(=O)N[C@@H](CCCNC(=N)N)C(=O)N[C@@H](CC1CCCCC1)C(N)=O)[C@@H](C)O) [compound No. 233] | 1.2 | 0.33 | 36
Tetrahydro-2H-pyran-4-yl-carbamoyl-[Glu23, D-Pro24, Pya(4)26, Cha27,36, Aib28,31, Lys30]-PYY(23-36) (X5-E[dP]R[4Pal][Cha][Aib]NK[Aib]TRQR[Cha]-NH2; ends and bridges not checked) [compound No. 282] | 1.6 | 1.1 | 30
[(1S)-1-Carboxyethyl]carbamoyl-[D-Pro24, Pya(4)26, Cha27,36, Aib28,31, Lys30]-PYY(23-36) ({((1S)-1-Carboxyethyl)carbamoyl}-S[dP]R[4Pal][Cha][Aib]NK[Aib]TRQR[Cha]-NH2; SMILES C[C@H](NC(=O)N[C@@H](CO)C(=O)N1CCC[C@@H]1C(=O)N[C@@H](CCCNC(=N)N)C(=O)N[C@@H](Cc1ccncc1)C(=O)N[C@@H](CC1CCCCC1)C(=O)NC(C)(C)C(=O)N[C@@H](CC(N)=O)C(=O)N[C@@H](CCCCN)C(=O)NC(C)(C)C(=O)N[C@H](C(=O)N[C@@H](CCCNC(=N)N)C(=O)N[C@@H](CCC(N)=O)C(=O)N[C@@H](CCCNC(=N)N)C(=O)N[C@@H](CC1CCCCC1)C(N)=O)[C@@H](C)O)C(=O)O) [compound No. 286] | 0.94 | 0.78 | 37
(3-Carboxypropyl)carbamoyl-[D-Hyp24, Iva25, Pya(4)26, Cha27,36, Leu(Me)28, Lys30, Aib31]-PYY(23-36) ({(3-Carboxypropyl)carbamoyl}-S[dHyp][Iva][4Pal][Cha][tBuAla]NK[Aib]TRQR[Cha]-NH2; ends and bridges not checked) [compound No. 349] | 1.7 | 0.57 | 52
4-Imidazolecarbonyl-[Aib24,28,31, Iva25, Pya(4)26, Cha27,36, Lys30]-PYY(23-36) [compound No. 344] | 1.7 | 1.9 | 22

Further lines, with some results ahead:

GBA EC50 Ratio (human Y2 receptor [1]) | RBA IC50 Ratio (human Y2 receptor [2]) | Substance | food intake suppression rate (%) (male C57EL/6J mice)
0.57 | 0.89 | Morpholinocarbonyl-[D-Pro24, Pya(4)26, Cha27,36, Aib28,31, Lys30]-PYY(23-36) (morpholinocarbonyl-S[dP]R[4Pal][Cha][Aib]NK[Aib]TRQR[Cha]-NH2; SMILES C[C@@H](O)[C@H](NC(=O)C(C)(C)NC(=O)[C@H](CCCCN)NC(=O)[C@H](CC(N)=O)NC(=O)C(C)(C)NC(=O)[C@H](CC1CCCCC1)NC(=O)[C@H](Cc1ccncc1)NC(=O)[C@H](CCCNC(=N)N)NC(=O)[C@H]1CCCN1C(=O)[C@H](CO)NC(=O)N1CCOCC1)C(=O)N[C@@H](CCCNC(=N)N)C(=O)N[C@@H](CCC(N)=O)C(=O)N[C@@H](CCCNC(=N)N)C(=O)N[C@@H](CC1CCCCC1)C(N)=O) [compound No. 268] | 16
1.1 | 0.76 | 4-Imidazolecarbonyl-[D-Pro24, Pya(4)26, Cha27,36, Aib28,31, Lys30]-PYY(23-36) (Imidazole4carbonyl-S[dP]R[4Pal][Cha][Aib]NK[Aib]TRQR[Cha]-NH2; SMILES C[C@@H](O)[C@H](NC(=O)C(C)(C)NC(=O)[C@H](CCCCN)NC(=O)[C@H](CC(N)=O)NC(=O)C(C)(C)NC(=O)[C@H](CC1CCCCC1)NC(=O)[C@H](Cc1ccncc1)NC(=O)[C@H](CCCNC(=N)N)NC(=O)[C@H]1CCCN1C(=O)[C@H](CO)NC(=O)c1cnc[nH]1)C(=O)N[C@@H](CCCNC(=N)N)C(=O)N[C@@H](CCC(N)=O)C(=O)N[C@@H](CCCNC(=N)N)C(=O)N[C@@H](CC1CCCCC1)C(N)=O) [compound No. 213] | 33
1.2 | 1.1 | Ac-[D-Pro24, Pya(4)26, Cha27,36, Aib28,31, Arg(Me)30]-PYY(23-36) (Ac-S[dP]R[4Pal][Cha][Aib]N[Arg(Me)][Aib]TRQR[Cha]-NH2) [compound No. 314] | 21
1.9 | 1.2 | Ac-[Glu23, D-Hyp24, Iva25, Pya(4)26, Cha27,36, Leu(Me)28, Lys30, Aib31]-PYY(23-36) (Ac-E[dHyp][Iva][4Pal][Cha][tBuAla]NK[Aib]TRQR[Cha]-NH2; SMILES CC[C@](C)(NC(=O)[C@H]1C[C@H](O)CN1C(=O)[C@H](CCC(=O)O)NC(C)=O)C(=O)N[C@@H](Cc1ccncc1)C(=O)N[C@@H](CC1CCCCC1)C(=O)N[C@@H](CC(C)(C)C)C(=O)N[C@@H](CC(N)=O)C(=O)N[C@@H](CCCCN)C(=O)NC(C)(C)C(=O)N[C@H](C(=O)N[C@@H](CCCNC(=N)N)C(=O)N[C@@H](CCC(N)=O)C(=O)N[C@@H](CCCNC(=N)N)C(=O)N[C@@H](CC1CCCCC1)C(N)=O)[C@@H](C)O) [compound No. 351] | 27
0.91 | 0.58 | Ac-[Iva24, Pya(4)26, Cha27,36, Aib28,31, Lys30]-PYY(23-36) (Ac-S[Iva]R[4Pal][Cha][Aib]NK[Aib]TRQR[Cha]-NH2; SMILES CC[C@](C)(NC(=O)[C@H](CO)NC(C)=O)C(=O)N[C@@H](CCCNC(=N)N)C(=O)N[C@@H](Cc1ccncc1)C(=O)N[C@@H](CC1CCCCC1)C(=O)NC(C)(C)C(=O)N[C@@H](CC(N)=O)C(=O)N[C@@H](CCCCN)C(=O)NC(C)(C)C(=O)N[C@H](C(=O)N[C@@H](CCCNC(=N)N)C(=O)N[C@@H](CCC(N)=O)C(=O)N[C@@H](CCCNC(=N)N)C(=O)N[C@@H](CC1CCCCC1)C(N)=O)[C@@H](C)O) [compound No. 241] | 16
1.1 | 1.0 | 4-Pyridinecarbonyl-[D-Pro24, Iva25, Pya(4)26, Cha27,36, Aib28,31, Lys30]-PYY(23-36) (Isonicotinoyl-S[dP][Iva][4Pal][Cha][Aib]NK[Aib]TRQR[Cha]-NH2; SMILES CC[C@](C)(NC(=O)[C@H]1CCCN1C(=O)[C@H](CO)NC(=O)c1ccncc1)C(=O)N[C@@H](Cc1ccncc1)C(=O)N[C@@H](CC1CCCCC1)C(=O)NC(C)(C)C(=O)N[C@@H](CC(N)=O)C(=O)N[C@@H](CCCCN)C(=O)NC(C)(C)C(=O)N[C@H](C(=O)N[C@@H](CCCNC(=N)N)C(=O)N[C@@H](CCC(N)=O)C(=O)N[C@@H](CCCNC(=N)N)C(=O)N[C@@H](CC1CCCCC1)C(N)=O)[C@@H](C)O) [compound No. 301] | 35
0.78 | 0.54 | 2-Methylbutanoyl-[D-Pro24, Pya(4)26, Cha27,36, Aib28,31, Lys30]-PYY(23-36) ({2‑methylbutanoyl}-S[dP]R[4Pal][Cha][Aib]NK[Aib]TRQR[Cha]-NH2) [compound No. 276] | 16
